The source of these data is patent publication CN112341541A (INST FOR VIRAL DISEASE CONTROL AND PREVENTION CHINESE …, dated 2021).

For the assay, the target named is T1, 新型冠状病毒S1蛋白 (纯化) (SARS-CoV-2, UniProt P0DTC2 14-685).
T1 construct: domain: S1
The assay is described as follows: SPR, BIAcore 8000, purified S1 protein coupled to the chip, 1:1 binding fit.

B1: 人源抗新冠病毒中和性抗体nCoV-163 全抗体IgG (antibody, V domains shown)
VH: EVQLVESGGGLVQPGGSLRLSCEASEIIVNRNYMNWVRQAPGKGLEWVSIIYPGGSTFYADSVKGRFTISRDNSKNTMYLQMNSLRAEDTAVYYCARSYGDFYVDFWGQGTLVTVSS
VL: EIVLTQSPVTLSLSPGERATLSCRASQSVSSSYLAWYQQKPGQAPRLLIYGASSRATGIPDRFSGSGSGTDFTLTISRLEPEDFAVYYCQQHGRTFGQGTKVEIKR
notes: also called nCoV-163号抗体
B1 displayed a dissociation constant (Kd) of less than 4.88 pM.
